# From patent US20230399641A1 (SHANGHAITECH UNIVERSITY, published 2023)
# Molecular target: T1, receptor binding domain (RBD) of wildtype SARS-CoV-2 spike (residues 319-541) (SARS-CoV-2, UniProt P0DTC2 319-541)
# T1 construct: range 319-541
# Assay: SPR, purified ACE2 protein on purified RBD of SARS-CoV-2 spike
binder,measurement,value
purified human ACE2 mutant Q24del (receptor) STIEEAKTFLDKFNHEAEDLFYQSSLASWNYNTNITEENVQNMNNAGDKWSAFLKEQSTLAQMYPLQEIQNLTVKLQLQALQQNGSSVLSEDKSKRLNTILNTMSTIYSTGKVCNPDNPQECLLLEPGLNEIMANSLDYNERLWAWESWRSEVGKQLRPLYEEYVVLKNEMARANHYEDYGDYWRGDYEVNGVDGYDYSRGQLIEDVEHTFEEIKPLYEHLHAYVRAKLMNAYPSYISPIGCLPAHLLGDMWGRFWTNLYSLTVPFGQKPNIDVTDAMVDQAWDAQRIFKEAEKFFVSVGLPNMTQGFWENSMLTDPGNVQKAVCHPTAWDLGKGDFRILMCTKVTMDDFLTAHHEMGHIQYDMAYAAQPFLLRNGANEGFHEAVGEIMSLSAATPKHLKSIGLLSPDFQEDNETEINFLLKQALTIVGTLPFTYMLEKWRWMVFKGEIPKDQWMKKWWEMKREIVGVVEPVPHDETYCDPASLFHVSNDYSFIRYYTRTLYQFQFQEALCQAAKHEGPLHKCDISNSTEAGQKLFNMLRLGKSEPWTLALENVVGAKNMNVRPLLNYFEPLFTWLKDQNKNSFVGWSTDWSPYAD,Kd,416 nM
